# Non-standard residues stand in square brackets, D forms with d. No end group written: not given here. pGlu = O=C1CC[C@@H](C(=O)O)N1
# What was measured:
# [1] = tested on: spleen rosette forming cells (RFC); assay: cells; conditions: Mus musculus, read-out: AZ minimal concentration inhibiting 50 percent spleen rosette forming cells
# Description: At the end of the incubation, 12 × 10^6 sheep red blood cells (SRBC) are added to the cells in the test sample. The cells in the sample are centrifuged for 6 minutes at 200 g. and carefully and gently resuspended by rotation on a roller (10 cm. diameter) at low speed (10 rev./min.). RFC are counted in a haematocytometer. In the absence of thymic activity, the number of RFC is 1210/10^6 cells ± 120 (standard deviation, SD). In the presence of thymic activity, the RFC level is lowered to 200 to 400/10^6 cells.
# isoelectric point = assay type: physicochemical; conditions: given as pH
# Source text: The polypeptide hormone of this invention has an isoelectric point (pI) at pH 7.5 ± 0.1. Lack of affinity to activated charcoal indicates the absence of aromatic amino acids. Elution of the polypeptide with the void volume when chromatographed on Sephadex G-10 and retention on Sephadex G-15, G-25 and G-50 indicates a molecular weight greater than 700 and less than 3,000. Ultrafiltration through Amicon membranes indicates a molecular weight of […] to 10,000. No significant retention of the polypeptide is observed on CF-50, PM-30 and PM-10 membranes which have molecular cut-offs of 50,000; 30,000 and 10,000 respectively. Conversely no significant activity is found in UM2 and UM0.5 filtrates which have molecular weight cut-offs of 1,000 and 500 respectively. The polypeptide has the property that it binds to carboxymethyl cellulose at pH lower than 7.0 and to DEAE cellulose at a pH higher than 9.0. The polypeptide bound on carboxymethyl cellulose can be eluted with 0.12M NaCl.
Molecule,IC50 [1] [µg/mL],isoelectric point (pI) (isoelectric point),isoelectric point (pI) (isoelectric point; listed as thymic factor)
"Cn1cnc([N+](=O)[O-])c1Sc1ncnc2nc[nH]c12 [AZ, azathioprine]",1,–,–
"pyroglutamyl-Ala-Lys-Ser-Gln-Gly-Gly-Ser-Asn ([pGlu]AKSQGGSN) [polypeptide hormone, polypeptide hormone isolated from porcine blood]",–,7.5 ± 0.1,~7.5

# Reference: patent publication US4133804A, “Polypeptide possessing thymic activity” (Institut National de la Sante et de la Recherche Medicale …, priority 1976, dated 1979)
